Data on three molecules can be found in patent publication US20180305450A1 (AstraZeneca / MedImmune, published 2018).

Numbering of substitutions follows the chain as printed. Names may count otherwise.

The target of test [1] is T1, human PAR2 on cells (endogenous in A549 cells; overexpressed in 1321N1-hPAR2-c18 cells) (human, UniProt P55085 37-397).
T1 sequence: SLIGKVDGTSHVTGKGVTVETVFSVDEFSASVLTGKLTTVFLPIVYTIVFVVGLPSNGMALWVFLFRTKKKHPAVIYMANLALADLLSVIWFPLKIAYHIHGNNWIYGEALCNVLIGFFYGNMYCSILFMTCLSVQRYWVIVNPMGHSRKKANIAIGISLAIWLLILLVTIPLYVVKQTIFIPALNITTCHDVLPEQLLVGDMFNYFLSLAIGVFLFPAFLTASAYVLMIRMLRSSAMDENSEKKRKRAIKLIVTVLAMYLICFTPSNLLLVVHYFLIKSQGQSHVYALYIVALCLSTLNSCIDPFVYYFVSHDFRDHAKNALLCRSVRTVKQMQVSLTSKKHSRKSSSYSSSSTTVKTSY
Kind of test: cell-based or functional assay.

Test [2] deals with T2, recombinant biotinylated human PAR2 extracellular domain (residues 1-75), N-terminal AviTag, C-terminal Flag … (human, UniProt P55085 26-75, biotin on the AviTag (enzymatic biotinylation)).
T2 construct: also called Bio-human-PAR2 ECD; human PAR2 ECD; not shown: N-terminal AviTag (Avidity LLC); C-terminal Flag and poly Histidine tags
T2 sequence (P55085 26-75): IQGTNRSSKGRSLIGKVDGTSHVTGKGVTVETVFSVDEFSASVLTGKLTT
Kind of test: HTRF competition with Dylight650-Par0067 IgG, IgG. The method, then: (§1) Parent Par0067 IgG (used as a reference/control in all assays) was pre-diluted to give a 2000 nM stock in each of the two different pH assay buffers (in order to give a top final assay IgG concentration of 500 nM). All test, or other reference/control IgG were tested from a top final assay concentration of ¼ of the neat undiluted sample (i.e. no pre-dilution step was performed). Duplicate 11 point 1:3 serial dilutions then were prepared on 384 well polypropylene Greiner plates in each of the two assay buffers (pH 7.4 & 6.0). 5 μl per well was transferred from the relevant pH IgG dilution plate to the corresponding assay plate (pH 7.4 and pH 6.0). 5 ul of the appropriate pH assay buffer was added to the total and non-specific wells.
(§2) For multipoint dose response curves % Specific Binding values were plotted versus test purified antibody concentration (scFv or IgG). IC₅₀ values were determined via a sigmoidal dose response inhibition variable slope curve fit (4 parameter logistic equation) using Graphpad Prism Software.
(Time-resolved FRET reads energy transfer from a long-lived donor to a nearby acceptor.)

Test [3] addresses T2, recombinant biotinylated human PAR2 …. As to the kind of experiment: HTRF competition with Dylight650-Par0067 IgG, pH 7.4, IgG. The method, then:
as §1, §2

The target is the same in test [4]. Kind of test: Biacore SPR 25 C, pH 6.0. The method, then: (§3) The experiments were carried out using recombinant human, rat and cynomolgus PAR2 with an N-terminal Avi tag and C-terminal Flag-His tags.
(§4) Streptavidin was covalently immobilised to a C1 chip surface using standard amine coupling techniques at a concentration of 4 μg/ml in 10 mM Sodium acetate pH 4.5. A final streptavidin surface of approximately 30-100 RUs was achieved. Recombinant biotinylated PAR2 species (produced in-house) were titrated onto the streptavidin chip surface at 4 μg/ml in HBS-EP+ buffer to enable Fab binding at saturation (Rₘₐₓ). This low level of analyte binding ensured minimal mass transport effects.
(§5) The anti-PAR2 Fabs were serially diluted (0.39 nM-25 nM) in HBS-EP+ buffer pH 7.4 or MES-BS-EP+ pH 6.0 buffer or in MES-BS-EP+ pH 5.6 buffer and flowed over the chip at 50 μl/min, with 3 minutes association and up to 30 minutes dissociation. Multiple buffer-only injections were made under the same conditions to allow for double reference subtraction of the final sensorgram sets, which were analysed using the BiaEval software (version 2.0.1). The chip surface was fully regenerated with pulses of 4 M MgCl₂.
Background: SPR reads the build-up and loss of mass on a sensor chip optically.

Test [5] deals with T3, recombinant biotinylated rat PAR2 extracellular residues 1-75, N-terminal AviTag, C-terminal Flag and poly … (rat, UniProt Q63645 26-75, not fully specified; biotin on the AviTag (enzymatic biotinylation)).
T3 construct: range 1-75; not shown: N-terminal AviTag (Avidity LLC); C-terminal Flag and poly Histidine tags
T3 chain (looked up): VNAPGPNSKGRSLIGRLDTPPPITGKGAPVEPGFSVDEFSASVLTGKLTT
As to the kind of experiment: Biacore SPR 25 C, pH 6.0. The method, then: as §3, §4, §5

The target in test [6] is T2, recombinant biotinylated human PAR2 …. Kind of test: Biacore SPR 25 C, pH 7.4. The method, then: as §3, §4, §5
The target of test [7] is T3, recombinant biotinylated rat PAR2 …. As to the kind of experiment: Biacore SPR 25 C, pH 7.4. The method, then: as §3, §4, §5
Test [8] concerns the target T2, recombinant biotinylated human PAR2 …. Kind of test: Biacore SPR 25 C, pH 6.0; pH 6.0; human PAR2. The method, then:
as §3, §4, §5

For test [9] the target is unchanged. As to the kind of experiment: Biacore SPR 25 C, pH 6.0. The method, then:
as §3, §4, §5
The source holds these as a separate data set.

Test [10] addresses T3, recombinant biotinylated rat PAR2 …. As to the kind of experiment: Biacore SPR 25 C, pH 6.0. The method, then:
as §3, §4, §5

Test [11] has as its target T2, recombinant biotinylated human PAR2 …. As to the kind of experiment: Biacore SPR 25 C, pH 7.4. The method, then: as §3, §4, §5
This is another data set of the same source.

For test [12], the target named is T3, recombinant biotinylated rat PAR2 …. As to the kind of experiment: Biacore SPR 25 C, pH 7.4. The method, then: as §3, §4, §5

B1: PaB670129 IgG1TM (antibody, V domains shown)
VH: EVQLLESGGGLVQPGGSLRLSCAASGFTFSSYAMNWVRQAPGKGLEWVSTISYHGSHISYHDSVHHRFTISRDNSKNTLYLQMNSLRAEDTAVYYCARIHHDPMDVWGQGTLVTVSS
VL: SIELTQPPSVSVSPGQTASITCSGDNLGKKYVQWYQQKPGQSPVLVIYDDSNRPSGIPERFSGSNSGNTATLTISGTQAMDEADYYCQTWDGNPTTGETNVFGGGTKLTVL
notes: IgG1-TM (L234F, L235E, P331S), human lambda light chain; also called ZZ1RUE-F02
For B1, the “IC50 (read off the curve); calcium response to trypsin in presence of PaB670129, human A549 cells” value in test [1] is roughly 0.1 nM. Moreover, the “Fold IC50 pH 7.4 (Variant v Par0067)” value in test [2] was determined as 67.2 fold. In test [3], the IC50 amounted to 56.1 nM.

B2: PaB670136 Fab (Fab, V domains shown)
VH: B1 VH with S56H, H61A, V64H, V106H
VL: B1 VL
notes: Fab; also called ZZ1RUF-A01
Regarding B2, the Kd in test [4] was found to be 18.8 nM; in test [5], 37.5 nM; in [6], 0.957 nM; in [7], 4.15 nM. Moreover, the koff in [5] was 0.0589 s⁻¹; in [6], 0.00495 s⁻¹; in test [7], 0.0314 s⁻¹; in test [8], 14.9 s⁻¹. Besides, the kon in [5] is 1.57e+06 M⁻¹ s⁻¹; in test [6], 5.17e+06 M⁻¹ s⁻¹; in [7] it was 7.57e+06 M⁻¹ s⁻¹; in test [8] it was 7.92e+08 M⁻¹ s⁻¹.

B3: PaB670048 Fab (Fab, V domains shown)
VH: B1 VH with H54S, H57L, H61A, H65K, H66G, V106H
VL: B1 VL
notes: Fab; also called ZZ1KX4-E11
B3: the Kd came to 2.57 nM in test [4]; 5.12 nM in test [5]; 0.124 nM in [6]; 0.586 nM in [7]; 2.49 nM in test [9]; 4.48 nM in test [10]. Further, the Kd was 0.104 nM in test [11] and 0.435 nM in test [12]. The koff in [4] amounted to 0.00497 s⁻¹; in test [5] it was 0.0205 s⁻¹; in [6], 0.000519 s⁻¹; in [7] it was 0.00307 s⁻¹; in test [9], 0.00458 s⁻¹; in [10], 0.0217 s⁻¹. Further, the koff in [11] was 0.00058 s⁻¹; in [12], 0.00325 s⁻¹. Further, the on-rate (kon) in [4] turned out to be 1.94e+06 M⁻¹ s⁻¹; in [5] it was 4e+06 M⁻¹ s⁻¹; in test [6], 4.2e+06 M⁻¹ s⁻¹; in test [7], 5.24e+06 M⁻¹ s⁻¹; in test [9], 1.84e+06 M⁻¹ s⁻¹; in test [10] it was 4.84e+06 M⁻¹ s⁻¹. The figures for the kon in [11] and in test [12] were 5.59e+06 M⁻¹ s⁻¹ and 7.46e+06 M⁻¹ s⁻¹, respectively.

A word on the IC50: it is the point on the concentration scale where inhibition reaches its midpoint. One may read the Kd as a measure of binding affinity in units of concentration. What is called koff is the first-order rate constant of dissociation. A word on the kon: it is the second-order rate constant of association.
